# Results reported in US20220023406A1.
# Biological target: HB-EGF receptor for diptheria toxin/CRM197 (heparin-binding epidermal growth factor-like precursor) on OV90 ovarian cancer cells (UniProt Q99075)
# Test: cell-based or functional assay
# Chain of UniProt Q99075 (Q99075 63-148 limits assumed): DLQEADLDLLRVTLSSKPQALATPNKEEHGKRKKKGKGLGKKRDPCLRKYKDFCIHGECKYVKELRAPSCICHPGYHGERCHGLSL
substance,measurement,value
CRM197-Alexa488 (from UniProt P00587 26-560),"labelling of OV90 tumor cells with CRM197-Alexa488 after 24 hours (flow cytometry, 10 µg/mL, without trypan blue)",98.2%
same,"percentage of CRM197-Alexa488 uptake by OV90 tumor cells after 4 hours (flow cytometry, 10 µg/mL, without trypan blue)",82%
same,"percentage of OV90 cells with intracellular CRM197-Alexa488 after 4 hours (flow cytometry, with trypan blue quenching)",72.7%
same,"percentage of OV90 cells with intracellular CRM197-Alexa488 after 24 hours (flow cytometry, with trypan blue quenching)",97.6%
